Reference: patent publication US20090264344A1 (University of California, published 2009)
Bridges are numbered along the chain shown (N, C = ends).

Tests used:
[1] = target: T1, Glycosylated HIV-1 gp120 (LAV) envelope glycoprotein (HIV-1 (LAV), UniProt P03377 33-516, limits assumed, glycosylated); assay: SPR (Biacore 2000), gp120 LAV immobilized on CM5 chip, peptide in flow, 1:1 fit
T1 construct: domain: gp120; Bought
Method: Surface plasmon resonance (SPR) experiments were done with a Biacore 2000 system (Biacore, Inc., Piscataway, N.J.). The running buffer (pH 7.4) contained 10 mM HEPES, 150 mM NaCl, 3 mM EDTA and 0.005% polysorbate 20. The immobilized proteins (gp120-LAV and CD4) were dissolved at 20 μg/ml in 10 mM sodium acetate, pH 5.0 and immobilized on a Biacore CM5 sensor chip using the amine coupling method. The chip was activated by mixing 400 mM EDC (N-ethyl-N-(3-dimethylaminopropyl)-carbodiimide hydrochloride) and 100 mM N-hydroxysuccinimide. An immobilization level of 6000 response units (RU) was attained for each bound protein. Residual reactive groups on the chip surface were blocked using 1.0 Methanolamine/HCl, pH 8.5.
In those experiments, biosensor chips containing immobilized gp120 or CD4 were perfused with a 1 μg/ml solution of the peptides, and binding was measured by surface plasmon resonance.

[2] = target: T2, Recombinant HIV-1 BaL gp120 (HIV-1 (BaL)); assay: SPR (Biacore 2000), gp120 BaL immobilized on chip, peptide in flow, 1:1 fit
T2 construct: domain: gp120; also called gp120(BaL); gp120 BaL

[3] = target: T3, Recombinant human soluble CD4 (full-length 45 kDa glycosylated ectodomain) (human, UniProt P01730 26-396); assay: SPR (Biacore 2000), soluble CD4 immobilized on CM5 chip, peptide in flow, 1:1 fit
T3 construct: extracellular domain; Immobilized on a CM5 chip by amine coupling

B1: Retrocyclin-1 (RC-100) (peptide)
peptide: cyclo(GICRCICGRGICRCICGR)
modifications: disulfide 7-12, 5-14, 3-16
SMILES: CC[C@H](C)[C@@H]1NC(=O)CNC(=O)[C@H](CCCNC(=N)N)NC(=O)CNC(=O)[C@@H]2CSSC[C@H](NC1=O)C(=O)N[C@@H](CCCNC(=N)N)C(=O)N[C@H]1CSSC[C@H](NC(=O)[C@H](CCCNC(=N)N)NC(=O)[C@@H]3CSSC[C@H](NC(=O)[C@H]([C@@H](C)CC)NC1=O)C(=O)NCC(=O)N[C@@H](CCCNC(=N)N)C(=O)NCC(=O)N[C@@H]([C@@H](C)CC)C(=O)N3)C(=O)N[C@@H]([C@@H](C)CC)C(=O)N2
notes: Made by solid phase synthesis, then oxidized and cyclized; also called Retro1
[1]
  Kd: 35.4 nM
[2]
  Kd: 29.2 nM
[3]
  Kd: 31 nM

B2: RC-101 (R9K-Retrocyclin) (peptide)
peptide: cyclo(GICRCICGKGICRCICGR)
modifications: disulfide (positions not given here)
notes: Synthetic cyclic congener of retrocyclin; It was unlabelled in the SPR experiments
[1]
  Kd: 31.2 nM
[2]
  Kd: 20.5 nM
[3]
  Kd: 28.6 nM
